The labels stand for the following.
B1: Syntenin-2 (Homo sapiens), Q9H190 (parent)
chain: MSSLYPSLEDLKVDQAIQAQVRASPKMPALPVQATAISPPPVLYPNLAELENYMGLSLSSQEVQESLLQIPEGDSTAVSGPGPGQMVAPVTGYSLGVRRAEIKPGVREIHLCKDERGKTGLRLRKVDQGLFVQLVQANTPASLVGLRFGDQLLQIDGRDCAGWSSHKAHQVVKKASGDKIVVVVRDRPFQRTVTMHKDSMGHVGFVIKKGKIVSLVKGSSAARNGLLTNHYVCEVDGQNVIGLKDKKIMEILATAGNVVTLTIIPSVIYEHMVKKLPPVLLHHTMDHSIPDA
partner: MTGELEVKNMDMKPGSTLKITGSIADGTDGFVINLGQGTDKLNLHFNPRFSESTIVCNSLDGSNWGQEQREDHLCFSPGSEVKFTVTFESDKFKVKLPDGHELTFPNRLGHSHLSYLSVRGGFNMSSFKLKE
B2: Sperm-associated microtubule inner protein 4 (Homo sapiens), Q8N865 (parent)
chain: MEVIHGRPYCCRELEGADILSNTFYSNELHNPLQTVTRPTASEDRYQELRESLQQCRLPWGAEREYGGIIPISLPEDHRPKYEPPRVMGKGHQHYGFGGETWPRKLPVEQFYYLTQNKKSDVYGNDSLIPKPPNSTVGEICLPYPIEHPYHTHICRGAMFPTFTSPEDLYTGIKARTQQPFPPTVPTKAYDSTVLKTRGNPYRYELIDIPMDSKKKALTWPGQGVYYDFPRGVEKNKPVFYPKPPKTFAPNTSLNSWDPICSAKEANIQRNLERSHWLTSYTHDFTGLGPMDPLELDDYHEKMVAELTRKIGFDPEPQEKFHPVFKPPRPLEGRIARLIQNRRSLEAIVQQRPRSCPDCTPRVLCNFHTFVPSSKEMVALSDNIPAGVTHKNQDIEEKIIEEQSLLSTYELPSCYPTKDLTSIYDIKPFPKITDTKKTEDLYWRQQSLKTQPTPYCKPDHWIHYENLKSPLRDQYNMCPDPVSLSKPSVLQNKQDTEAFTLEHFLSKPEEELFLNMENNEETRPVLGWIPRAGVTKPQTNLLELKNSFSKTGAQKRFHKSILEDHKDLRDNEHSGMKHQFYGHNSYYFYN
partner: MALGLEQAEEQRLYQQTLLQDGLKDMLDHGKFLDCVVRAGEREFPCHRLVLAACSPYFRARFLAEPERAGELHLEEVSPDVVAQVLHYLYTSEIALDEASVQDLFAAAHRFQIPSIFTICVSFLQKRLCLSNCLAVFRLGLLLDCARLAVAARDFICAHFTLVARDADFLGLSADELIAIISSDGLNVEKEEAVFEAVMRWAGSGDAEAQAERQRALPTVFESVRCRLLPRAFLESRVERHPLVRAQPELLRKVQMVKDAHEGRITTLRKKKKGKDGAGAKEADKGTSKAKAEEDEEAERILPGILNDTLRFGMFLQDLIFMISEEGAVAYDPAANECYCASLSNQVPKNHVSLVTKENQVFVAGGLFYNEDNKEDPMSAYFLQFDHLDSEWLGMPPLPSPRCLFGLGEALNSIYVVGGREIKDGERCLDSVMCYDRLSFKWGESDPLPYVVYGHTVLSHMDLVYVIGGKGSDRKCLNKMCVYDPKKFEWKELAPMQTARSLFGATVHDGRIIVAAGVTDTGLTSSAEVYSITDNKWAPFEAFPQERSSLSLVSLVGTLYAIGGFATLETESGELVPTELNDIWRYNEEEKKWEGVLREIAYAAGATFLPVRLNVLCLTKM
B3: Dynein light chain 2, cytoplasmic (Homo sapiens), Q96FJ2 (parent)
chain: MSDRKAVIKNADMSEDMQQDAVDCATQAMEKYNIEKDIAAYIKKEFDKKYNPTWHCIVGRNFGSYVTHETKHFIYFYLGQVAILLFKSG
partner: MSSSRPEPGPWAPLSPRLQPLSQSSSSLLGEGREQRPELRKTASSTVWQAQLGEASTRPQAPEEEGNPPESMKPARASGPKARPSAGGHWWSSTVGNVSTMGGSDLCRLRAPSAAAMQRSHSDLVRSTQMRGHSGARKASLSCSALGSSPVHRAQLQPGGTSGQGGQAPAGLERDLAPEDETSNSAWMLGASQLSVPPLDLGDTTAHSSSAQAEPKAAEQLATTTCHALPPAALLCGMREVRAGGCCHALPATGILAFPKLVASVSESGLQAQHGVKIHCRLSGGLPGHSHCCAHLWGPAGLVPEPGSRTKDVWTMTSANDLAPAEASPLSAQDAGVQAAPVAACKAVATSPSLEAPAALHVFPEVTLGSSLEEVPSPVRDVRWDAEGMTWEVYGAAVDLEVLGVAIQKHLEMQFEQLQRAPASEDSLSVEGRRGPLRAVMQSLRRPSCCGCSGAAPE

The variants in one assay derive from B1. The note with it: with leg2_human LGALS2, P05162.
Take R223C: the “effect of a mutation on the interaction” value is listed as “disrupting interaction strength”.

The variants in the next assay derive from B2. The note with it: with klh40_human KLHL40, Q2TBA0.
For the variant H300R, the “effect of a mutation on the interaction” value was “with no effect”. Turning to P238Q, the “effect of a mutation on the interaction” value was “with no effect”.

Regarding A158T, the “effect of a mutation on the interaction” value was “with no effect”.

In the next assay the parent is B3. The note with it: with grin2_human GPRIN2, O60269.
Take N33S: the “effect of a mutation on the interaction” value is given as “with no effect”.

The values above are taken from IntAct's records for PubMed 31515488.
